# Measurements taken from publication PMC4954977.
# Tests used:
# [1] = target: murine neonatal Fc receptor (FcRn), extracellular domain (murine | not stated) (UniProt Q61559); assay: SPR; FcRn extracellular domain immobilised on a CM5 chip (600 RU); Fc fusions injected; McIlvaine's phosphate-citrate buffer pH 6.0 with 0.05% Tween 20, 25 °C, 50 μL/min; Biacore 3000; bivalent analyte model (KD1)
# [2] = target: mouse PRYSPRY-domain of TRIM21 (tripartite-motif containing protein 21) (mouse); assay: SPR; TRIM21 PRYSPRY-domain immobilised on a CM5 chip (200 RU); Fc fusions injected; HBS-EP pH 7.4 (0.01 M HEPES, 0.15 M NaCl, 3 mM EDTA, 0.05% Tween 20), 25 °C, 50 μL/min; Biacore 3000; bivalent analyte model (KD1)
# Sequence of UniProt Q61559 (Q61559 whole entry, looked up, the tested form may be a part): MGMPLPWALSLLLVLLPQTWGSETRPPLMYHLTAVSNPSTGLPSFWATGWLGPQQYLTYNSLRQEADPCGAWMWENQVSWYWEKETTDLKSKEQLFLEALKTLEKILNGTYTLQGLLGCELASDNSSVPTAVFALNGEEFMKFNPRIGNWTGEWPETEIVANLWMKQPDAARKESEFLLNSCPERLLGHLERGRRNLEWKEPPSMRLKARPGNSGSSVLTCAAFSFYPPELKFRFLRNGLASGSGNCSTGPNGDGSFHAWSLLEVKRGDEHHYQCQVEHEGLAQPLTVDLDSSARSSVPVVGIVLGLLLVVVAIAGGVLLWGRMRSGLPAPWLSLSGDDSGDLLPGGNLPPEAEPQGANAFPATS
substance,measurement,setting,value
Fc-ARP1 fusion protein (mouse IgG1 Fc fused to the anti-rotavirus VHH ARP1) (Fc fusion),Kd,[1],760 nM
same,Kd,[2],28 nM
